The results in this text go back to the RNAGym collection of RNA variant scans (doi:10.7554/elife.80360).

The labels stand for the following.
B1: HDV Ribozyme (parent)
chain: GGCCGGCAUGGUCCCAGCCUCCUCGCUGGCGCCGGCUGGGCAACAUUCCGAGGGGACCGUCCCCUCGGUAAUGGCGAAUGGGACCCA

The variants in the series derive from B1. The experiment in a line: self-cleavage, relative activity (ratio to wild type); higher = more cleavage; co-transcriptional.
Regarding C32A U65C, the self-cleavage worked out at 0.

As to C32A U65A, the self-cleavage came to 0.309. To C32U C58A belongs 1; to C32U A42C, 0.233; to C32U U65A, 1.08. To C32U U65G belongs 0.956. In the case of C32U U65C, the self-cleavage is 0.91. With C33A A42G the figure was 0; with C32U G54U, 0.923. With C32U G54C the figure was 0.992; with C33A C84U, 0.193. Turning to C33A C84A, the self-cleavage worked out at 0.0811. With C32G G50A the figure was 0.157; with C32G G50C, 0.262; with C33G U46G, 0.208.

Take C33G U46C: the self-cleavage came out at 0.185. With C32U U79C the figure was 0.201; with C33G C48U, 0.13. As to C32G U46A, the self-cleavage was 0.0332. Turning to C33G G54U, the self-cleavage worked out at 0.0426. To C32G C49A belongs 0. With C32G A70U, the self-cleavage is 0.032. Consider C32G A70G, for which the self-cleavage amounted to 0.0554.

In the case of C32U G53U, the self-cleavage came out at 0.811. To C32U G53C belongs 0.846; to C33A G68C, 0.0449; to C32U C44A, 0.243. With C32G G74A, the self-cleavage came to 0.126. To C32G G74U belongs 0.125; to C32G G74C, 0.166; to C33G C57G, 0.214. With C33G C57A the figure was 0.147. Consider C33G C57U, for which the self-cleavage was determined as 0.166. With C32U A70C the figure was 0.68. To C32U A70U belongs 0.892; to C32U A70G, 0.85.

As to C33A G54C, the self-cleavage was 0.222.

For C33A G54U, the self-cleavage is 0.198. Turning to C32G G81C, the self-cleavage was 0.0773. As to C32G G81A, the self-cleavage came to 0.0297.

On to C33G G52A, for which the self-cleavage was determined as 0.148. With C33G C62G the figure was 0.196; with C33A G50C, 0.203. To C33A G50U belongs 0.295; to C33A G50A, 0.215. With C32U C61A the figure was 0.841; with C32U C61U, 0.817; with C33A A45C, 0.133. In the case of C33A A45U, the self-cleavage amounted to 0.232.

Turning to C33A C49U, the self-cleavage was found to be 0.212. With C33A C49A the figure was 0.364; with C32U U46C, 0.554.

With C32U U46G, the self-cleavage came to 0.646. With C33G G82C the figure was 0.0405; with C33A A78G, 0.161; with C32G C64U, 0.109.

Turning to C32G G76U, the self-cleavage was 0.122.

With C32G G76C, the self-cleavage came out at 0.224.

Turning to C33G A83G, the self-cleavage amounted to 0.0963. To C33G A83U belongs 0.162.

Take C32U G39A: the self-cleavage turned out to be 0.192. For C33A C86A, the self-cleavage is 0.277. With C32U A77G the figure was 0.73; with C33G G68A, 0.177; with C32U G81U, 0.185.

As to C32U G81A, the self-cleavage turned out to be 0.158.

On to C32U C86U, for which the self-cleavage stood at 0.686. Turning to C33A G35C, the self-cleavage was determined as 0.133. To C32G C63A belongs 0. C33G G73U: the self-cleavage is 0.138. For the variant C33G G73A, the self-cleavage came out at 0.0308.

Turning to C33G G73C, the self-cleavage was 0.253.

On to C32U A83U, for which the self-cleavage was found to be 0.456.

For the variant C33G C36G, the self-cleavage came out at 0.128. To C33G C36A belongs 0.107. With C33G G53U, the self-cleavage is 0.185.

On to C33G G53A, for which the self-cleavage amounted to 0.0449.

For C33A C75G, the self-cleavage turned out to be 0.145. To C33A U72A belongs 0.208.

In the case of C32G G38C, the self-cleavage is 0.0462. For the variant C32U C63U, the self-cleavage is 0.817. To C32U C63A belongs 0.701; to C33A A83G, 0.144. Regarding C33A G53U, the self-cleavage was 0.277. For C33A G53A, the self-cleavage turned out to be 0.264.

As to C33G G39U, the self-cleavage came to 0.0692. C33G G39C: the self-cleavage was 0.0386.

Regarding C33A C57U, the self-cleavage came to 0.46. To C33A A43U belongs 0.163; to C33G C66U, 0.181; to C33G G76A, 0.185.

With C33G G76C, the self-cleavage amounted to 0.229. With C32G G82U the figure was 0.228; with C32G G82A, 0.0997.

As to C32G A51U, the self-cleavage is 0.128. Consider C33G C63U, for which the self-cleavage turned out to be 0.173.

With C33G C63A, the self-cleavage came out at 0.0475. To C33G C63G belongs 0.369.

As for C32U G74A, the self-cleavage was 0.459. Regarding C32G G73C, the self-cleavage was found to be 0.12. On to C33G U47C, for which the self-cleavage was 0.317.

Take C33G U47A: the self-cleavage was 0.227. C32U C41U: the self-cleavage was found to be 0.629. To C32U C41G belongs 0.429; to C32G G68A, 0.185; to C32G G68U, 0.089.

As for C33G U65A, the self-cleavage was found to be 0.156. With C32A U47G the figure was 0.246.

With C32U G73U, the self-cleavage turned out to be 0.267. On to C32U G73C, for which the self-cleavage came out at 0.261. Turning to C32U A71C, the self-cleavage was 0.665. To C32G U60A belongs 0.131. Take C33A G59U: the self-cleavage came to 0.338. Take C33A G59C: the self-cleavage was determined as 0.521. With C33A C63G the figure was 0.283; with C33A C63U, 0.503; with C33G G40A, 0.243.

In the case of C33G G40U, the self-cleavage turned out to be 0.233. In the case of C32G C58A, the self-cleavage came to 0.189.

As for C33G C61A, the self-cleavage worked out at 0.193. In the case of C33G C61G, the self-cleavage turned out to be 0.19.

In the case of C33G C61U, the self-cleavage was determined as 0.212. With C32G A45C the figure was 0.0707. To C32U G50C belongs 0.764. With C33A G40A the figure was 0.214; with C32U G59U, 0.795; with C32U G59A, 0.963. Regarding C32G G55C, the self-cleavage was determined as 0.136. Regarding C32G G55U, the self-cleavage is 0.0911. To C32G G55A belongs 0.0841; to C32G U72G, 0.0519.

For the variant C32G A77U, the self-cleavage is 0.123.

Take C32G A77C: the self-cleavage amounted to 0.0536. For the variant C32G A77G, the self-cleavage turned out to be 0.0475.

On to C32U C75U, for which the self-cleavage was determined as 0.315.

As for C32G U65G, the self-cleavage was found to be 0.119.

Consider C32U U37A, for which the self-cleavage was determined as 0.252.

With C32G C66A, the self-cleavage was 0.113. For the variant C32G C66G, the self-cleavage turned out to be 0.0583. For C33G C84U, the self-cleavage came out at 0.0386. Turning to C33G C84G, the self-cleavage amounted to 0.0489. To C32G C36U belongs 0.111; to C32G A83G, 0; to C32G A83C, 0.0346. To C33A G55U belongs 0.349. Turning to C32U U60C, the self-cleavage was 0.7.

As to C33A G38A, the self-cleavage was 0.0386.

Consider C33A G38U, for which the self-cleavage came to 0.153. On to C33A G67A, for which the self-cleavage came to 0.273. With C33A C61G the figure was 0.237. With C33A C61U the figure was 0.265. To C32U C33U belongs 0.166; to C32U C33G, 0.117; to C32U C33A, 0.161. Take C32U G67U: the self-cleavage is 0.88. To C32U A87G belongs 0.787; to C32U A87U, 1.03; to C32G G80U, 0.0831. With C32G C48U, the self-cleavage was 0.0449. Regarding C32U G80A, the self-cleavage came out at 0.256. To C32U G80C belongs 0.132; to C33A C85G, 0.309; to C33A C85U, 0.277. For C32U G38A, the self-cleavage is 0.216. To C32G C86G belongs 0.119; to C32G C86A, 0.18. For C33G G74U, the self-cleavage was determined as 0.173.
